Results as given in the supplement of paper PMC12042874.
± gives the uncertainty stated by the source.

Test: amyloid nucleation score (Sup35N fusion, yeast selection) (log enrichment); library NNK1; higher = more nucleation; inactive = no reads after selection
How it was run: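 Using DiMSum, nucleation scores were taken as the log enrichment of output over input reads, centred on the mode score of non-aggregating sequences. The input and output reads came from Illumina sequencing of plasmid inserts, with sequences under 100 input reads excluded. The yeast were psi-negative, expressed Sup35N fused to peptides of 20 random codons, were induced with 100 μM copper sulfate for 24 hours, and were grown 7 days at 30°C on medium lacking adenine and uracil.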

Substance	amyloid nucleation score
PYLSRTRISIVNMCSICGLI	1.34 ± 0.44
SWMKSLLFVFGLTCQMRECV	-0.544 ± 0.61
RNLIGLV	0.318 ± 0.68
VGDKQFHTKYMVA	0.031 ± 1.1
SSSFRCAFSSVA	0.994 ± 0.69
RVPAFRY	inactive
YYLQDDTWGLKFNPIVSTCF	1.13 ± 0.54
CRSSSERSIFG	0.439 ± 0.53
DTFCQL	-0.147 ± 1.1
IVGMASRCRGFR	1.11 ± 0.71
LWSVCLVTSVQKDAGVLPSG	0.85 ± 0.62
RMNGLSGRLSTAWQFMYMWC	-0.153 ± 0.34
LNLTCDHSPSYLLIFFLMSI	0.719 ± 0.2
MITSR	1.11 ± 0.53
GKSWLSMKNQISINRRSMIP	-0.449 ± 0.5
HNIAIAPARWCVSSIRSG	-0.53 ± 0.45
VVAGNSAKEIYKFTGADTPY	-0.751 ± 0.57
FSTIGCKSMAVNCSFWYWSR	6.196 ± 0.047
VLVFIFDSTVSI	8.236 ± 0.046
YYWIYVIPSIFSIF	5.5 ± 0.088
FLGMAHLCHEEGVRKLGGES	0.679 ± 0.64
VTVEIAWKMA	0.054 ± 0.67

Substance	amyloid nucleation score
SGCVQLM	1.32 ± 0.74
TRSMALL	-0.098 ± 0.71
RCSCFY	inactive
PNNKE	0.638 ± 0.33
YQFGLEKSMLGRGY	0.36 ± 0.41
SAFFYDSFYRMRLSLFIGYG	0.63 ± 0.55
RDEVGIVHRMSEPKRYGGIK	-1.11 ± 1.5
TMLMESTIRRRC	-0.021 ± 0.54
VKNRNKGTYRCWVVYITGKS	-0.205 ± 0.28
PRSVVSTEPSGTVGVPKENK	-0.839 ± 0.62
LYTYALARCIFISFMDCRMN	0.371 ± 0.26
AVDMTWYIVVSMLHMLDASV	1.26 ± 0.76
PGCESARRLKLRVSLKLRGK	-0.731 ± 1.1
RPSWFLTADDRVWFSSTGRG	0.053 ± 1.4
TTSCNGLFERAKNSTNSPDI	-2.25 ± 2.4
LIMNFGGRLRVAGFGVLVMD	2.09 ± 0.15
NSILFNGTQLD	-0.976 ± 0.35
KRVCLFLGSWNRHHLLGLFG	1.41 ± 0.84
RVIGTGYECTNATEDSLSYL	inactive
GLGCSSLCQLMN	0.983 ± 0.56
KFYSMKTSNFWCI	2.04 ± 0.18
NDGPNSIIYFYMIFI	4.58 ± 0.12

Substance	amyloid nucleation score
IFSCGIGHWV	0.462 ± 0.49
WGIFSMYHWRYAVRDRSMHS	inactive
MLRTSARSQRGNRGLAKMGF	-1.87 ± 2.7
GVLLLIQSGNCRWRRSSRAP	0.344 ± 0.65
PLTKVFV	0.167 ± 0.82
VYWRREVSI	0.312 ± 1.2
SGWNEFTRGTTRVHWRNQYS	-1.48 ± 2.4
TDFMFFWGDFMVTYTAVVCR	-0.096 ± 0.44
IVENARWKVAAEPRNRRSSV	0.273 ± 0.58
IDHPTVKLIRYSAIHIALVT	0.093 ± 0.28
NFGLRRYSNARMGMDCGWLC	-0.011 ± 0.45
TRLKFGGSKHESSQT	1.18 ± 0.43
HNVFDNLHMDSDKRMANSV	0.428 ± 0.4
ASRYRKFTLWN	-0.466 ± 0.31
GAGLYCR	0.376 ± 0.52
SDNIYVMAWCSCNAARSIVF	0.616 ± 0.18
SINRRALRLGHHSSGVMAGL	-0.547 ± 1.3
YLSLTTEVWSNGHVWCGIGR	-0.043 ± 1.4
SFQFVSSCDIRRFAISRATG	-0.152 ± 0.47
DLVTH	0.015 ± 0.83
QNPLMRNYNPRFCHCGLSAP	inactive
WIHACK	0.778 ± 0.45

Substance	amyloid nucleation score
QKNCT	1.01 ± 0.34
YPNYFSVRFSNWLASTKFQI	inactive
QQYSVDSRCTTVRYGLYMDM	0.662 ± 1.1
SVKTLLVRGILSLSIGFYMS	0.294 ± 0.52
RGHLLGFMRRLCFIGLR	-0.372 ± 0.64
PEARWWERMDKGCMKVFHFK	0.945 ± 0.44
NWGENWRLGMSSIREESGAE	-0.735 ± 2.1
RINLYIMFNLLDSGVDLNS	6.45 ± 0.071
SWFSRMGTCYDFNSKWSCLL	0.654 ± 0.66
HCSSFNILRMNDNE	0.398 ± 0.23
RLSQLVLVVWTAQGC	-0.006 ± 0.63
RSRVLRMLFPAGEDYQLHMV	0.8 ± 0.65
NTANIIDTGGDSTPLISRSC	-0.958 ± 0.96
LKGRYDIKNY	inactive
ICSVRSTQVGEKTSLPWLCR	0.371 ± 0.41
IYTVVRAVCMGPGSGWLFRK	-1.05 ± 1.2
HYRSHSIGIRFAVSDWRIAF	0.844 ± 0.46
CVWVKGHSRCLTTSLVRRSR	-0.022 ± 0.42
GIGHELFSNWVMEQLA	-0.23 ± 0.35
MLFGC	-0.003 ± 0.41
KLSGMIAEMRAGPCTYRILY	-0.511 ± 0.45
